Drawing on patent US20240167008, “NOVEL CRISPR ENZYMES, METHODS, SYSTEMS AND USES THEREOF” (Beam Therapeutics Inc., published 2024), this text covers activity for three molecules.

To fix the notation:
T1: ScoCas9 (human codon-optimized) (Streptococcus constellatus)
T1 chain: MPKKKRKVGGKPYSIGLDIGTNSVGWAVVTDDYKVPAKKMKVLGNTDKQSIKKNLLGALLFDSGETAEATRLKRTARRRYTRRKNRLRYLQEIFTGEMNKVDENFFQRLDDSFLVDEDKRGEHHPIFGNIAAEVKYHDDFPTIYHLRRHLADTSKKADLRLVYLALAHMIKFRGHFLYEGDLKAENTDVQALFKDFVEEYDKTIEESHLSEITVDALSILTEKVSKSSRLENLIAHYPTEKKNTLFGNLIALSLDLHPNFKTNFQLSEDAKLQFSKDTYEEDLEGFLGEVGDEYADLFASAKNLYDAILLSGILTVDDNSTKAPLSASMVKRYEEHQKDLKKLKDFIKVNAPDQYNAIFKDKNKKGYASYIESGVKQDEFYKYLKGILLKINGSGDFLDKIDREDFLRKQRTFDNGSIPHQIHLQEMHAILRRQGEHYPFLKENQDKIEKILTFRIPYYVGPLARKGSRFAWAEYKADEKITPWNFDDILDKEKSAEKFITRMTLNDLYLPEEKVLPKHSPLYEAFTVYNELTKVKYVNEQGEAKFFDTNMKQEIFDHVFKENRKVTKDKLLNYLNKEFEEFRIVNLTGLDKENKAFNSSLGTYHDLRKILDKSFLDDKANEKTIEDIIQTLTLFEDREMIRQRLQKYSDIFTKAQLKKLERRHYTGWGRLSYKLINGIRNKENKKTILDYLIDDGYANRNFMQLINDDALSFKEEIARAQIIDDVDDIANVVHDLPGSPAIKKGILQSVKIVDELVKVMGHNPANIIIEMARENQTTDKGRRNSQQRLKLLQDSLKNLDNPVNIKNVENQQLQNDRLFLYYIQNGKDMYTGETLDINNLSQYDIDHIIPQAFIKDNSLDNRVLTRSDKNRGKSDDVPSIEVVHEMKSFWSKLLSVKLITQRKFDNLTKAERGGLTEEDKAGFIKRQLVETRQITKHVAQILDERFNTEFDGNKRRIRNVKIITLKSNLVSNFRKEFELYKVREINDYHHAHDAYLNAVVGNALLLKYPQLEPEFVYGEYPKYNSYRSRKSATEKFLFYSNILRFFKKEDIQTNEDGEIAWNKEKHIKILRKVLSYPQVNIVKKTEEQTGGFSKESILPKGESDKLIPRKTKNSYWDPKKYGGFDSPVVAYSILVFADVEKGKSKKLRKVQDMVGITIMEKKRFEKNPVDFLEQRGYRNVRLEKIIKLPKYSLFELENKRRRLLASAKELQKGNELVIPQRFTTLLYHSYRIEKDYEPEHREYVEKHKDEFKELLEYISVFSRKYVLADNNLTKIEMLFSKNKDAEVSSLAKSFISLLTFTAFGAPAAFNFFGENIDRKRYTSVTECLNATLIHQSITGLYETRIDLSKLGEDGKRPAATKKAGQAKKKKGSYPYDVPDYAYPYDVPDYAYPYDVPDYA

B1: Sco guide 2 sgRNA ; guide 2 site (ssRNA ; dsDNA)
RNA: GAAACAAUGAUAACAAGACCGUUUUAGAGCUGUGCUGUUUAAACAACACAGCAAGUUAAAAUAAGGCUUUGUCCGUACUCAAGCUUGCAAAAGCGUGCACCGAUUCGGUGCU
DNA 1: GAAACAATGATAACAAGACCTGG
DNA 2: CCAGGTCTTGTTATCATTGTTTC
B2: Sco guide 11 sgRNA ; guide 11 site (ssRNA ; dsDNA)
RNA: UGCUGCACACAGCAGGCCUUGUUUUAGAGCUGUGCUGUUUAAACAACACAGCAAGUUAAAAUAAGGCUUUGUCCGUACUCAAGCUUGCAAAAGCGUGCACCGAUUCGGUGCU
DNA 1: TGCTGCACACAGCAGGCCTTTGG
DNA 2: CCAAAGGCCTGCTGTGTGCAGCA
B3: Sco guide 9 sgRNA ; guide 9 site (ssRNA ; dsDNA)
RNA: GUUGAAGAUGAAGCCCAGAGGUUUUAGAGCUGUGCUGUUUAAACAACACAGCAAGUUAAAAUAAGGCUUUGUCCGUACUCAAGCUUGCAAAAGCGUGCACCGAUUCGGUGCU
DNA 1: GTTGAAGATGAAGCCCAGAGCGG
DNA 2: CCGCTCTGGGCTTCATCTTCAAC

This data set concerns the target T1, ScoCas9 (human codon-optimized). In words: cell_activity; PAM NGG; HEK293T. The note with it: tags: N-terminal and C-terminal NLS, 3xHA. Here is the method:
HEK293T cells were plated in a 96-well plate. Cells were transfected with expression vectors containing Cas9 and guide RNAs (Table 10), 24 hours after plating. Cells were harvested 72 hours post-transfection and total DNA was extracted.
The molecule B1 had an activity above 30 % indel.

Consider B2, for which the activity was around 2 % indel.

As for B3, the activity was above 30 % indel.
